Consider 8 molecules from patent publication US12365732 (23ANDME, dated 2025).

Assay [1] concerns the target T1, hu-CD96 isoform 2 on CHO cells (human, UniProt P40200 22-585).
T1 construct: also called CHO-CD96 (isoform 2); CD96-CHOs
T1 sequence: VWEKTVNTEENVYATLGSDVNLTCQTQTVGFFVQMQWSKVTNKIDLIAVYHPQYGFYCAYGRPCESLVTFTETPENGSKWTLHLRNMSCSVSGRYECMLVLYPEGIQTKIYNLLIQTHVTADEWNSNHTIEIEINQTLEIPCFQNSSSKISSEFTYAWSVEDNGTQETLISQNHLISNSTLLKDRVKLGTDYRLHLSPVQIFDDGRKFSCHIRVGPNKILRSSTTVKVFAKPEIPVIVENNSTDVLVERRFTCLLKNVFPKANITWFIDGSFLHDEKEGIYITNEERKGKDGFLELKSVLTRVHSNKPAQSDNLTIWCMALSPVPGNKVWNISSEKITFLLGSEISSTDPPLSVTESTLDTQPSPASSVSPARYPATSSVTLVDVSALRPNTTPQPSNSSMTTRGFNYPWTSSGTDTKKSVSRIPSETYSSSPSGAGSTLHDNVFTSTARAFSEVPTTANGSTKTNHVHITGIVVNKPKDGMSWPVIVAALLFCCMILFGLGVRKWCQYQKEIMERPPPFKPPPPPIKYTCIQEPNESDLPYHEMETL
The assay can be described thus: FACS, Ab 2 nM. The procedure:
(§1) Isoform 1 of hu-CD96 (Origene, catalog #RC213845) was transiently expressed in HEK293T cells following standard lipofectamine or Fugene transfection protocol. […] Cells were washed, and binding was detected by incubation with anti-mouse IgG-FITC (Biolegend, catalog #406001) for 20 minutes at 4° C. Cell binding was analyzed by flow cytometry with a CytoFLEX (Beckman Coulter). Binding curves were calculated as a percentage of cells positive for bound antibody.
(§2) Isoform 2 of hu-CD96 (DNA construct: Origene, catalog #RC221005) was expressed on a single-cell-clone-derived CHO stable cell line. Binding of the anti-CD96 antibodies to the CHO cells were determined as described above with isoform 1 of hu-CD96.
A general note: Flow cytometry measures light scatter and fluorescence of single cells or particles in a stream.

Assay [2] deals with T2, hu-CD96 isoform 1 on HEK293T cells (human, UniProt P40200 22-585).
T2 construct: Origene RC213845, transient expression; also called HEK293T-CD96 (iso1)
T2 sequence: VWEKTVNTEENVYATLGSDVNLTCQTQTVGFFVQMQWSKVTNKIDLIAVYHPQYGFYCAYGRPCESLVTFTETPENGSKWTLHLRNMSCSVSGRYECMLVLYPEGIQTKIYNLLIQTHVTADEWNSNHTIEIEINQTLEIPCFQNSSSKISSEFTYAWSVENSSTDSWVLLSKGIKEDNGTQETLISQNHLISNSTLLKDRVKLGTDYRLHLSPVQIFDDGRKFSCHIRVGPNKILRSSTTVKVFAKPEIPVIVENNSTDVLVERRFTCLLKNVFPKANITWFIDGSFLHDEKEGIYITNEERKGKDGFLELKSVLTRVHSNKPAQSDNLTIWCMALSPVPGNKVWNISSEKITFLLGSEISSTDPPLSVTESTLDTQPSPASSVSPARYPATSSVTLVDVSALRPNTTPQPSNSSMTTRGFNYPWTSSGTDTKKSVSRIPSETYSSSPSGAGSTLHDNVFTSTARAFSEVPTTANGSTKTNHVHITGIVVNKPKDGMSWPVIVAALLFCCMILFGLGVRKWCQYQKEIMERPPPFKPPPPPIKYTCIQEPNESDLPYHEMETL
The assay can be described thus: FACS, Ab 10 nM. The procedure: as §1

Assay [3] addresses T1, hu-CD96 isoform 2 on CHO cells. The assay can be described thus: FACS, Ab 50 nM. The method, then: as §1, §2
For assay [4] the target is unchanged. As to the kind of experiment: FACS, Ab 0.08 nM. The method, then:
as §1, §2

For assay [5] the target is unchanged. As to the kind of experiment: FACS, CD155-Fc-FLAG 10 nM, Ab 0.0064 nM. The procedure:
CHO cells stably expressing isoform 2 of hu-CD96 (Origene, catalog #RC221005) were incubated with anti-CD96 antibodies for 20 minutes at 4° C. The cells were washed, and then incubated with 10 nM human CD155-Fc-FLAG for 30 minutes at 4° C. Cells were washed, and then human CD155-Fc-FLAG binding was detected by incubation with anti-FLAG-APC (Columbia Biosciences, catalog #D3-1718-1MG) for 20 minutes at 4° C. Cell binding was analyzed by flow cytometry with a CytoFLEX (Beckman Coulter). CD155 binding is represented as median fluorescence intensity (MedFI).
As shown in Table 20 (below), the anti-CD96 antibodies, mAb1.v7.NGS8, mAb1.v7.NGS9, mAb1.v7.NGS10, mAb1.v7.NGS11, and h10G1 inhibited soluble hu-CD155 binding to CD96-expressing CHO cells dose-dependently and potently. The antibody NK92.39 (Fuchs et al., 2004; Biolegend catalog #338405) inhibited receptor binding similarly.

The next assay deals with T3, hu-CD96 Fc (human, biotinylated in Table 16).
T3 construct: also called biotinylated hu-CD96-Fc
As to the kind of experiment: SPR 37C, biotin-CD96-Fc captured, IgG analyte. The method, then:
(§3) Briefly, a 1:4 dilution of Biotin CAPture Reagent (GE Healthcare) into HBS-EP buffer (0.01 M HEPES pH 7.4, 0.15 M NaCl, 3 mM EDTA, 0.005% Surfactant P20) was applied to the chip at 2 µL/min flow rate. For the kinetics measurements, 20 nM biotinylated hu-CD96-Fc and cy-CD96-Fc was captured at 10 µL/min to achieve ~50 response units in the second flow cell (FC2). FC1 was kept as a reference. Next, 4-fold serial dilutions of IgG in HBS-P buffer (0.01 M HEPES pH 7.4, 0.15 M NaCl, 0.005% surfactant P20) from low (3.125 nM) to high (200 nM) concentration were injected (flow rate: 10 µL/min) at 37° C. The sensorgram was recorded and subject to reference and buffer subtraction before evaluating by BIACORE® 8K Evaluation Software (version 1.1.1.7442). Association rates ($kon$) and dissociation rates ($koff$) were calculated using a simple one-to-one Langmuir binding model. The equilibrium dissociation constant (K_D) value was calculated as the ratio of $koff/kon$.

For a further assay, the target named is T4, cy-CD96 Fc (cynomolgus monkey, biotinylated in Table 16).
T4 construct: also called biotinylated cy-CD96-Fc
As to the kind of experiment: SPR 37C, biotin-CD96-Fc captured, IgG analyte. The procedure: as §3

B1: 7E5, purified hybridoma antibody (antibody, V domains shown)
VH: QVQLKESGPGLVAPSQSLSIICTVSGFSLTNYGIHWIRQPPGKGLEWLGIIWAGGSTNYNSALMSRLTISKDNSKSQVFLKMNSLQTNDTAIYYCARVSMMGFAYWGQGTLVTVSA
VL: QAVVTQESALTTSPGETVTLTCRSSTGAVTTSNYANWVQEKPDHLFTGLIGGTNNRAPGVPARFSGSLIGDKAALTITGAQTEDEAIYFCSLWYGSHWVFGGGTKLTVL
notes: murine hybridoma IgG
On to B1, for which the “% positive” value in assay [1] was determined as 53.3%; in assay [2], 47.4%; in assay [3], 58.9%; in assay [4] it was 24.6%.

B2: 10G1 (clone 10G1.3G8), purified hybridoma antibody (antibody, V domains shown)
VH: QIQLVQSGPELKKPGETVKISCKASGYPFTTYGMSWVKQAPGKGLKWMGWINTDSGVPTYADDFKGRFAFSLETSANTAYLQINSLKNEDAATYFCARNIYYGWGNFDYWGQGTILTVSS
VL: DILMTQSPTTLSVTPGETVSLSCRASQDIYRNLHWYQQKSQGTPRLLIKHASDSISGIPSRFTGSGSGTDFTLSINSVKPEDEGIYYCLQGYSMPYTFGGGTKLEIK
notes: murine hybridoma IgG
Consider B2, for which the “% positive” value in assay [1] is 34.9%; in assay [2], 53.4%; in assay [3] it was 39.8%; in assay [4], 9.4%.

B3: mAb1.v7 IgG (humanized 12F8) (antibody, V domains shown)
VH: EVQLVQSGAEVKKPGASVKVSCKASGFTFTNNWMHWVRQAPGQGLEWIGMIHPNSGITNINEKFKNRVTMTTDTSTSTAYMELRSLRSEDTAVYYCRSDGTYEGYFDYWGQGTLVTVSS
VL: DIQLTQSPSSLSASVGDRVTITCKASQNVGTAIVWYQQKPGKAPKVLIYSASTRYTGVPSRFSGSGSGTDFTLTISSLQPEDFATYYCQQYSSSPLTFGQGTKVEIKG
notes: human IgG1 N297G
On to B3, for which the “% positive” value was determined as 42.4% in assay [1], 48.8% in assay [2], 44.1% in assay [3] and 1.4% in assay [4].

B4: mAb1.v7.NGS10 IgG (antibody, V domains shown)
VH: EVQLVQSGAEVKKPGASVKVSCKASGFTFTNNFMHWVRQAPGQGLEWIGFIHANSGITNINEKFKNRVTMTTDTSTSTAYMELRSLRSEDTAVYYCRSDGIYEGYFDYWGQGTLVTVSS
VL: DIQLTQSPSSLSASVGDRVTITCKASQNVGTAIVWYQQKPGKAPKVLIYSASTRYTGVPSRFSGSGSGTDFTLTISSLQPEDFATYYCQQYSSSPLTFGQGTKVEIKG
notes: human IgG1 N297G
On to B4, for which the “CD155-Fc binding (MedFI)” value in assay [5] was found to be 55900 MedFI. For the same molecule, in the assay with hu-CD96 Fc, the Kd (usually the free concentration of one partner at which half of the binding sites on the other are occupied at equilibrium, for simple one-to-one binding) came to 0.01 nM; the koff (commonly the rate constant with which the complex falls apart) was determined as 1.84e-06 s⁻¹; the kon (commonly the second-order rate constant of association) is 144000 M⁻¹ s⁻¹. In the assay with cy-CD96 Fc, this molecule displayed a Kd of 0.49 nM, a koff of 0.000374 s⁻¹ and a kon of 767000 M⁻¹ s⁻¹.

B5: mAb1.v7.NGS11 IgG (antibody, V domains shown)
VH: EVQLVQSGAEVKKPGASVKVSCKASGFTFTNNFMHWVRQAPGQGLEWIGFIHANSGITNINEKFKNRVTMTTDTSTSTAYMELRSLRSEDTAVYYCRSDGVYEGYFDYWGQGTLVTVSS
VL: DIQLTQSPSSLSASVGDRVTITCKASQNVGTAIVWYQQKPGKAPKVLIYSASTRYTGVPSRFSGSGSGTDFTLTISSLQPEDFATYYCQQYSSSPLTFGQGTKVEIKG
notes: human IgG1 N297G
With B5, in assay [5], the “CD155-Fc binding (MedFI)” value is 63600 MedFI. In the assay with hu-CD96 Fc, the affinity, expressed as Kd, was 0.08 nM; the koff is 1.38e-05 s⁻¹; the kon came to 173000 M⁻¹ s⁻¹. In the assay with cy-CD96 Fc, this molecule had a Kd of 1.52 nM, a koff of 0.000513 s⁻¹ and a kon of 338000 M⁻¹ s⁻¹.

B6: mAb1.v7.NGS9 IgG (antibody, V domains shown)
VH: EVQLVQSGAEVKKPGASVKVSCKASGFTFTNNFMHWVRQAPGQGLEWIGMIHANSGITNINEKFKNRVTMTTDTSTSTAYMELRSLRSEDTAVYYCRSDGVYEGYFDYWGQGTLVTVSS
VL: DIQLTQSPSSLSASVGDRVTITCKASQNVGTAIVWYQQKPGKAPKVLIYSASTRYTGVPSRFSGSGSGTDFTLTISSLQPEDFATYYCQQYSSSPLTFGQGTKVEIKG
notes: human IgG1 N297G
As to B6, the “CD155-Fc binding (MedFI)” value in assay [5] was 56600 MedFI. In the assay with hu-CD96 Fc, this molecule showed a Kd of 0.2 nM, a koff of 5.42e-05 s⁻¹ and a kon of 266000 M⁻¹ s⁻¹. Also, in the assay with cy-CD96 Fc, the Kd was 2.88 nM, the koff is 0.000734 s⁻¹ and the kon was determined as 255000 M⁻¹ s⁻¹.

B7: h10G1 IgG (humanized 10G1) (antibody, V domains shown)
VH: EIQLVQSGSELKKPGASVKVSCKASGYPFTTYGMSWVRQAPGQGLEWMGWINTDSGVPTYADDFKGRFVFSLDTSVSTAYLQISSLKAEDTAVYFCARNIYYGWGNFDYWGQGTLVTVSS
VL: EIVMTQSPDFQSVTPKEKVTITCRASQDIYRNLHWYQQKPDQTPKLLIKHASDSISGIPSRFSGSGSGTDFTLTINSLEAEDAAAYYCLQGYSMPYTFGGGTKVEIKG
notes: human IgG1 N297G
Take B7: the “CD155-Fc binding (MedFI)” value in assay [5] is 65700 MedFI. Moreover, in the assay with hu-CD96 Fc, the Kd stood at 0.64 nM, the koff came out at 0.000393 s⁻¹ and the kon is 612000 M⁻¹ s⁻¹. Moreover, in the assay with cy-CD96 Fc, binding was put at a Kd of 1.13 nM, the koff stood at 0.00789 s⁻¹ and the kon is 6.99e+06 M⁻¹ s⁻¹.

B8: 9H4, purified hybridoma antibody (antibody, V domains shown)
VH: EVQLLETGGGLVKSGGSLKLSCAASGFTFSDYYMYWVRQTPEKRLEWVAAISDDGTYTYYPDSVKGRFTISRDNANNYLYLQMSSLKSEDTAIYYCAKAGSYDYFDVWGAGTTVTVSS
VL: DIVLTQSPASLAVSLGQRAIISCKASQSVTFADTGLMHWYQQKPGQQPKLLIYRASNLEVGVPTRFSGSGSGTDFTLNIHPVEEEDVATYYCQQSREYPWTFGGGTKLEIK
notes: murine hybridoma IgG
Take B8: the “% positive” value stood at 44.2% in assay [1], 48.4% in assay [2], 46.2% in assay [3] and 3.1% in assay [4].
